Results published in US20040248785A1.

Columns and labels:
[1] = target: low density lipoprotein receptor-related protein / alpha2-macroglobulin receptor (LRP), isolated from human placenta (human) (UniProt Q07954); assay: homologous displacement on LRP-coated wells
[2] = target: low density lipoprotein receptor-related protein / alpha2-macroglobulin receptor (LRP), isolated from human placenta (human) (UniProt Q07954); assay: solid-phase homologous ligand displacement: 125I-fVIII (1 nM) on LRP-coated wells, 1 h at 37 C, rising unlabeled fVIII
[3] = target: low density lipoprotein receptor-related protein / alpha2-macroglobulin receptor (LRP), isolated from human placenta (human) (UniProt Q07954); assay: homologous displacement of 125I-fVIII (1 nM) by unlabeled fVIII on LRP-coated wells, single class of sites, LIGAND

Chain of low density lipoprotein receptor-related protein / alpha2-macroglobulin receptor (LRP), isolated from human placenta (human) (Q07954 20-4544): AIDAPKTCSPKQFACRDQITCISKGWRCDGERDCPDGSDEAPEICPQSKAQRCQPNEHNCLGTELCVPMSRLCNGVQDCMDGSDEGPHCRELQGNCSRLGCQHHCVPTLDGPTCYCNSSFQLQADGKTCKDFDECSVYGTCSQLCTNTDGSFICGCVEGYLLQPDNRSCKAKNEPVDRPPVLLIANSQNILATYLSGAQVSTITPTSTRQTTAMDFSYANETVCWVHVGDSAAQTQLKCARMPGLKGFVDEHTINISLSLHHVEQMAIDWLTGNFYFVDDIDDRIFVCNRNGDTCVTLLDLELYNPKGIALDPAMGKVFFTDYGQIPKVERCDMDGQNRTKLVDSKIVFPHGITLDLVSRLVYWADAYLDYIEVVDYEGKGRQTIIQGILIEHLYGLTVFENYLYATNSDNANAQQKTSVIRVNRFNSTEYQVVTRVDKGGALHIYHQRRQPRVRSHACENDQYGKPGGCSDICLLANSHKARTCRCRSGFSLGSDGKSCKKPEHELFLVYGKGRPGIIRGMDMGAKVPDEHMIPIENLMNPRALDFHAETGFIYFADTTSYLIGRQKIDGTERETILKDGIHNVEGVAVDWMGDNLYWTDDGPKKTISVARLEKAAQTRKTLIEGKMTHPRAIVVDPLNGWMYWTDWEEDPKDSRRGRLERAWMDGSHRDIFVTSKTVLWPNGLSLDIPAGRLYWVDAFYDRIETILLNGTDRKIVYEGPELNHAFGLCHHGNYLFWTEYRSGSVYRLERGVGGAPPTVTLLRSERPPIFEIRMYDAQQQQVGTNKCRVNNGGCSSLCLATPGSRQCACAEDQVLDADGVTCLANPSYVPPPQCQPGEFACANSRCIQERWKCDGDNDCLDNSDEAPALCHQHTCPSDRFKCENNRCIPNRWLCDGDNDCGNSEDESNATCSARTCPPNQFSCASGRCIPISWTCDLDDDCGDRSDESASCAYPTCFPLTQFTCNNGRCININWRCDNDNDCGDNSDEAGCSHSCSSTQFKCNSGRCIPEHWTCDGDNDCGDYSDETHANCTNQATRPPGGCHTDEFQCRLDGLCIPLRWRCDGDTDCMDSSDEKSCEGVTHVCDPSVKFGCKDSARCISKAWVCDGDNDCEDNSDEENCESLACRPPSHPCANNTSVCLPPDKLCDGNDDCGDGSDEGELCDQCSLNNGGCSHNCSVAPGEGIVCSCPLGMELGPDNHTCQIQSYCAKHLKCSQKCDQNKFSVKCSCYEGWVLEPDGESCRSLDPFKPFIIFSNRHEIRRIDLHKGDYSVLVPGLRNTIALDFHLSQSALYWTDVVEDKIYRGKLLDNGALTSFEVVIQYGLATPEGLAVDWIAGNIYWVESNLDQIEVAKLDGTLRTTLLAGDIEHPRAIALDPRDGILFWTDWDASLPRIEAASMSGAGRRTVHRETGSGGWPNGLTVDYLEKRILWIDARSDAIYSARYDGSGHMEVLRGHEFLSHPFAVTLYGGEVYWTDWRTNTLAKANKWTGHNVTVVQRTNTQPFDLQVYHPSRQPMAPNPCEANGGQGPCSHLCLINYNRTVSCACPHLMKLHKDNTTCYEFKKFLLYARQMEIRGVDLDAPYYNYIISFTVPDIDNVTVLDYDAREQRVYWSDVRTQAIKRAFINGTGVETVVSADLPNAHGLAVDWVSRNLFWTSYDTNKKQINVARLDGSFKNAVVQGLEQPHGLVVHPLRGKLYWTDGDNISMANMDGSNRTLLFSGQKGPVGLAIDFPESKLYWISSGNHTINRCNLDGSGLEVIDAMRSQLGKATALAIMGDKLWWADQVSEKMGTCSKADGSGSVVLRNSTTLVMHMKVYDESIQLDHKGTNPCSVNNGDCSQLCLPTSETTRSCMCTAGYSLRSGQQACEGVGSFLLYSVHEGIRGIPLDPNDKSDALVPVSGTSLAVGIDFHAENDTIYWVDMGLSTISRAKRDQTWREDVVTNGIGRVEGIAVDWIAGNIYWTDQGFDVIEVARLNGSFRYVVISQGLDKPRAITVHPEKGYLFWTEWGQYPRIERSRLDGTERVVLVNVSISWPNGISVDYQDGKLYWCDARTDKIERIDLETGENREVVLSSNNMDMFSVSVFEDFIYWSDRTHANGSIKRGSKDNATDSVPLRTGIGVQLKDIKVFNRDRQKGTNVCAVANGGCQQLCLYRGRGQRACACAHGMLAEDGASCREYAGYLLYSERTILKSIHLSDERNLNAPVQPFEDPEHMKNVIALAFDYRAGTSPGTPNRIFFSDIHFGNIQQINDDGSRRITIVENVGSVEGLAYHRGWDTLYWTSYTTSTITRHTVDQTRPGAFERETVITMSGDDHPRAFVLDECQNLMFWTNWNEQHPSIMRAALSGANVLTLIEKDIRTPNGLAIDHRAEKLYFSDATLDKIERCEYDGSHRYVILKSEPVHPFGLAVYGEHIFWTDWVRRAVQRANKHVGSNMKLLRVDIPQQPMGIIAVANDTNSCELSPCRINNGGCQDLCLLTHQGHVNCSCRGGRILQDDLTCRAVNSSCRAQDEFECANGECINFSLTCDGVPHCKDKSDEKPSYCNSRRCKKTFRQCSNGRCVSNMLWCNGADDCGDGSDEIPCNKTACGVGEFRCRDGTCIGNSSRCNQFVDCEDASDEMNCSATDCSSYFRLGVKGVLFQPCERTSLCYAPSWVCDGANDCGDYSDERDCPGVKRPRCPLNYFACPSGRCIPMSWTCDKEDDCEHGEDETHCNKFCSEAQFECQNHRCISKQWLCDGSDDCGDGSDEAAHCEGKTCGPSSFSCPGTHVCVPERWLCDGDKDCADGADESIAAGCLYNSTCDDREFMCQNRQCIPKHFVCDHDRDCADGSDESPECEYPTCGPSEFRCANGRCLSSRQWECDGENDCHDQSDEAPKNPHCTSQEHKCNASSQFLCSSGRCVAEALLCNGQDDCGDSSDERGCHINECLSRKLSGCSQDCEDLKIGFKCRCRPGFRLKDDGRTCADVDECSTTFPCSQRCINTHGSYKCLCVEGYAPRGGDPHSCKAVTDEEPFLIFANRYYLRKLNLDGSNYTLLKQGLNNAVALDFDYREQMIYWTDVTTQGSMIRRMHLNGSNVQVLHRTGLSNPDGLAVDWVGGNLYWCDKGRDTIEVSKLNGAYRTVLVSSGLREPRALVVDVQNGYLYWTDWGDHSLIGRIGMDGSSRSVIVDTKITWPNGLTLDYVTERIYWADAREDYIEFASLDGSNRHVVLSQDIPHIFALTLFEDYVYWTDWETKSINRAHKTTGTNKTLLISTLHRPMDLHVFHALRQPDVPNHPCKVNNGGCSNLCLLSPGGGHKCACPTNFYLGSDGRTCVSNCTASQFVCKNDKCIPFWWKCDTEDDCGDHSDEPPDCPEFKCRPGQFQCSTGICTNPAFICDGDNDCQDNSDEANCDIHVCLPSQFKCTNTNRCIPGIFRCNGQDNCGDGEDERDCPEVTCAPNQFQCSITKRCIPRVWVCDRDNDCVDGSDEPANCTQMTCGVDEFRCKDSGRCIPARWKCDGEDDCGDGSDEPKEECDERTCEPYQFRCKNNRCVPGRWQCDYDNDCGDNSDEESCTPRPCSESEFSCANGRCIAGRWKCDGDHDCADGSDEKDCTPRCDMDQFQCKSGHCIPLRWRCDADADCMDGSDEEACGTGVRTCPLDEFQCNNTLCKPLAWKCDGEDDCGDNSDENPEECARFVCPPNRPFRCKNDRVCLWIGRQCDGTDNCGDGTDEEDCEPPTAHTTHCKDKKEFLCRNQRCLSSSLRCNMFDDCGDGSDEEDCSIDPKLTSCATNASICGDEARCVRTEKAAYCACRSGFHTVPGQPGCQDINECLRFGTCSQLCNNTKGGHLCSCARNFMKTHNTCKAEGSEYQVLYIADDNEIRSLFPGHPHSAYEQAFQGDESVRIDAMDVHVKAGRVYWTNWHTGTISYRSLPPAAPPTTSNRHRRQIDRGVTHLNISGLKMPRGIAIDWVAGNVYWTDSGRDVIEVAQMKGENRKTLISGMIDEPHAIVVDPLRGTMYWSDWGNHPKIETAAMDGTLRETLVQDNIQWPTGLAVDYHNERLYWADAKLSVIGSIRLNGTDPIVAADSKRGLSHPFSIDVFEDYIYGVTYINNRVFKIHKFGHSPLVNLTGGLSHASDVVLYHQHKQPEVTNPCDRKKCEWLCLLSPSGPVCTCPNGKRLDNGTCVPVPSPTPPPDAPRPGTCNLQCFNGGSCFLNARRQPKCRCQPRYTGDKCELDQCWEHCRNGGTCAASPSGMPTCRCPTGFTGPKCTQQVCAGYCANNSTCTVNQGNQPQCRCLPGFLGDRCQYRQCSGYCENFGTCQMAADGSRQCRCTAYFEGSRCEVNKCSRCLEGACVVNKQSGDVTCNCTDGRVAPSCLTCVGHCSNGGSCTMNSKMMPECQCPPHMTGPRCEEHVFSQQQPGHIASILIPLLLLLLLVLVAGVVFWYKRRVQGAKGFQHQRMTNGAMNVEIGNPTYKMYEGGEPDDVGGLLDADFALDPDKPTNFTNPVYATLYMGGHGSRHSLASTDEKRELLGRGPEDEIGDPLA

## factor VIII (fVIII), purified from therapeutic concentrates of Method M, American Red Cross, P00451 20-1667; P00451 1668-2351
[1]
  percent of 125I-fVIII binding competed by an excess of unlabeled fVIII: > 90%
[2]
  IC50 (read off the curve): 100 nM
[3]
  Kd: 116 nM
